# Columns and labels:
# Experiment in all cases: cell-based or functional assay
# [1] = molecular target: Env of HIV isolate CNE14 (clade B) (HIV)
# [2] = molecular target: Env of HIV isolate CNE21 (clade BC) (HIV)
# [3] = molecular target: HIV Env of isolate HT593.1 (HIV)
# [4] = molecular target: Env of HIV isolate 3873.v1.c24 (clade C) (HIV)
# [5] = molecular target: HIV Env of isolate 246-F3.C10.2 (HIV)
# [6] = molecular target: HIV Env of isolate TH966.8 (HIV)
# [7] = molecular target: HIV Env of isolate CH070.1 (HIV)
# [8] = molecular target: HIV Env of isolate 7165.18 (HIV)
# [9] = molecular target: Env of HIV isolate 26191-2.48 (clade C) (HIV)
# [10] = molecular target: HIV Env of isolate X2088.c9 (HIV)
# [11] = molecular target: HIV Env of isolate CAAN.A2 (HIV)
# [12] = molecular target: HIV Env of isolate CNE56 (HIV)
# [13] = molecular target: Env of HIV isolate C3347.c11 (clade AE) (HIV)
# [14] = molecular target: Env of HIV isolate CNE10 (clade B) (HIV)
# [15] = molecular target: HIV Env of isolate SS1196.01 (HIV)
# [16] = molecular target: Env of HIV isolate ZM135.10a (clade C) (HIV)
# [17] = molecular target: Env of HIV isolate ZM214.15 (clade C) (HIV)
# [18] = molecular target: Env of HIV isolate 3988.25 (clade B) (HIV)
# [19] = molecular target: HIV Env of isolate BJOX009000.02.4 (HIV)
# [20] = molecular target: Env of HIV isolate BJOX002000.03.2 (clade BC) (HIV)
# [21] = molecular target: HIV Env of isolate P1981.C5.3 (HIV)
# [22] = molecular target: Env of HIV isolate X2088.c9 (clade G) (HIV)
# [23] = molecular target: HIV Env of isolate Bal.01 (HIV)
# [24] = molecular target: HIV Env of isolate Q168.a2 (HIV)
# [25] = molecular target: Env of HIV isolate 89.6.DG (clade B) (HIV)
# [26] = molecular target: HIV Env of isolate DU123.06 (HIV)
# [27] = molecular target: Env of HIV isolate M02138 (clade AE) (HIV)
# [28] = molecular target: Env of HIV isolate 271-11 (clade AG) (HIV)
# [29] = molecular target: HIV Env of isolate TRO.11 (HIV)
# [30] = molecular target: HIV Env of isolate C2101.c1 (HIV)
# [31] = molecular target: Env of HIV isolate BG1168.01 (clade B) (HIV)
# [32] = molecular target: HIV Env of isolate 3589.v1.c4 (HIV)
# [33] = molecular target: Env of HIV isolate TRJO.58 (clade B) (HIV)
# [34] = molecular target: Env of HIV isolate 928-28 (clade AG) (HIV)
# [35] = molecular target: HIV Env of isolate 263-8 (HIV)
# [36] = molecular target: HIV Env of isolate BS208.B1 (HIV)
# [37] = molecular target: Env of HIV isolate 6838.v1.c35 (clade C) (HIV)
# [38] = molecular target: HIV Env of isolate AC10.29 (HIV)
# [39] = molecular target: Env of HIV isolate T253-11 (clade AG) (HIV)
# [40] = molecular target: HIV Env of isolate CH117.4 (HIV)
# [41] = molecular target: Env of HIV isolate NKU3006.ec1 (clade D) (HIV)
# [42] = molecular target: Env of HIV isolate TZA125.17 (clade C) (HIV)
# [43] = molecular target: Env of HIV isolate AC10.29 (clade B) (HIV)
# [44] = molecular target: HIV Env of isolate CNE58 (HIV)
# [45] = molecular target: Env of SIVmac251.30.SG3
# [46] = molecular target: Env of HIV isolate HT593.1 (clade B) (HIV)
# [47] = molecular target: HIV Env of isolate P0402.c2.11 (HIV)
# [48] = molecular target: HIV Env of isolate CNE31 (HIV)
# [49] = molecular target: HIV Env of isolate SO18.18 (HIV)
# [50] = molecular target: Env of HIV isolate 3168.v4.c10 (clade C) (HIV)
# [51] = molecular target: Env of HIV isolate T33-7 (clade AG) (HIV)
# [52] = molecular target: Env of HIV isolate ZM176.66 (clade C) (HIV)
# [53] = molecular target: Env of HIV isolate 7165.18 (clade B) (HIV)
substance,measurement,setting,value
PGT121 (antibody),"IC50, pseudovirus neutralization",[1],0.0103 µg/mL
same,"IC50, pseudovirus neutralization",[2],0.0143 µg/mL
same,IC80,[3],> 50 µg/mL
same,"IC50, pseudovirus neutralization",[4],0.045 µg/mL
same,IC80,[5],> 50 µg/mL
same,IC80,[6],> 50 µg/mL
same,"IC80, pseudovirus neutralization",[7],0.0423 µg/mL
same,IC80,[8],0.103 µg/mL
same,"IC50, pseudovirus neutralization",[9],0.085 µg/mL
same,"IC80, pseudovirus neutralization",[10],0.019 µg/mL
same,IC80,[11],0.0503 µg/mL
same,IC80,[12],> 50 µg/mL
same,"IC50, pseudovirus neutralization",[13],> 50 µg/mL
same,"IC50, pseudovirus neutralization",[14],0.0193 µg/mL
same,IC80,[15],0.0307 µg/mL
same,"IC50, pseudovirus neutralization",[16],0.748 µg/mL
same,"IC50, pseudovirus neutralization",[17],0.392 µg/mL
same,"IC50, pseudovirus neutralization",[18],0.0127 µg/mL
same,IC80,[19],9.02 µg/mL
same,"IC50, pseudovirus neutralization",[20],0.026 µg/mL
same,"IC80, pseudovirus neutralization",[21],0.013 µg/mL
same,"IC50, pseudovirus neutralization",[22],0.00633 µg/mL
same,IC80,[23],0.0277 µg/mL
same,IC80,[24],> 50 µg/mL
same,"IC50, pseudovirus neutralization",[25],0.0337 µg/mL
same,"IC80, pseudovirus neutralization",[26],0.135 µg/mL
same,"IC50, pseudovirus neutralization",[27],> 50 µg/mL
same,"IC50, pseudovirus neutralization",[28],> 50 µg/mL
same,IC80,[29],0.0583 µg/mL
same,IC80,[30],> 50 µg/mL
same,"IC50, pseudovirus neutralization",[31],> 50 µg/mL
same,IC80,[32],> 50 µg/mL
same,"IC50, pseudovirus neutralization",[33],1.63 µg/mL
same,"IC50, pseudovirus neutralization",[34],5.76 µg/mL
same,IC80,[35],2.5 µg/mL
same,IC80,[36],> 50 µg/mL
same,"IC50, pseudovirus neutralization",[37],0.0613 µg/mL
same,IC80,[38],0.149 µg/mL
same,"IC50, pseudovirus neutralization",[39],> 50 µg/mL
same,"IC80, pseudovirus neutralization",[40],> 50 µg/mL
same,"IC50, pseudovirus neutralization",[41],> 50 µg/mL
same,"IC50, pseudovirus neutralization",[42],1.45 µg/mL
same,"IC50, pseudovirus neutralization",[43],0.067 µg/mL
same,"IC80, pseudovirus neutralization",[44],> 50 µg/mL
same,"IC80, pseudovirus neutralization",[45],> 50 µg/mL
same,"IC50, pseudovirus neutralization",[46],> 50 µg/mL
same,"IC80, pseudovirus neutralization",[47],0.0297 µg/mL
same,"IC80, pseudovirus neutralization",[48],2.08 µg/mL
same,"IC80, pseudovirus neutralization",[49],0.0167 µg/mL
same,"IC50, pseudovirus neutralization",[50],0.446 µg/mL
same,"IC50, pseudovirus neutralization",[51],> 50 µg/mL
same,"IC50, pseudovirus neutralization",[52],4.1 µg/mL
same,"IC50, pseudovirus neutralization",[53],0.0363 µg/mL

# — patent publication US20210292396A1
